Measurements: patent publication US20110091971A1, “Differentiation of Pluripotent Stem Cells” (priority 2008, published 2011)
Residue numbers refer to the chain shown, from its start.

B1: ACTN5: activin A variant peptide, SEQ ID 6 (protein)
chain: GLECDGKVNYCCKKQNFVSFKDIGWNDWIIAPSGYHANECSGKCPSHIAGTSGSSLSFHSTVINHYRMRGHSPFSNLGACCIPTKLRPMSMLYYDDGQNIIKKDIQNMIVEECGCS
B2: ACTN6: activin A variant peptide, SEQ ID 7 (protein)
chain: B1 chain with Y10L, N16W, E39R, S75A, N76D, L77M
modifications: Sytnthetic Construct
B3: ACTN27: activin A variant peptide, SEQ ID 28 (protein)
chain: B1 chain with Y10L, N16L, E39H, S41D, S75A, L77R
B4: ACTN42: activin A variant peptide, SEQ ID 43 (protein)
chain: B1 chain with N16D, E39K, N76D, L77M, A79S
B5: ACTN13: activin A variant peptide, SEQ ID 14 (protein)
chain: B1 chain with Y10L, N16D, E39K, N76D, L77M, A79S
B6: ACTN15: activin A variant peptide, SEQ ID 16 (protein)
chain: B1 chain with Y10L, N16D, E39R, K43L, L77M, A79S
B7: ACTN46: activin A variant peptide, SEQ ID 47 (protein)
chain: B1 chain with Y10L, S41G, K43L, F74H, S75A, L77R
B8: ACTN40: activin A variant peptide, SEQ ID 41 (protein)
chain: B1 chain with Y10L, N16L, E39H, S41A, K43L, L77M, A79S, I82V
B9: ACTN36: activin A variant peptide, SEQ ID 37 (protein)
chain: B1 chain with Y10L, N16D, E39R, S75A, L77M, I82V
B10: ACTN86: activin A variant peptide, SEQ ID 87 (protein)
chain: GLECDGKVNICCKKQSFGKTKDIGWNDWIIAPSGYHGGGCSGECPSHIAGTSGSSLSFHSTVINHYRMRGHSPWANLKSCCSPTKLRPMSMLYYDDGQNIIKKDIQNMVVEECGCT
B11: ACTN74: activin A variant peptide, SEQ ID 75 (protein)
chain: B10 chain with K19R, T20A, S41T, W74F, N107G
B12: ACTN60: activin A variant peptide, SEQ ID 61 (protein)
chain: B10 chain with K19Q, S82A, T116V
B13: ACTN88: activin A variant peptide, SEQ ID 89 (protein)
chain: B10 chain with K19Q
B14: ACTN61: activin A variant peptide, SEQ ID 62 (protein)
chain: B10 chain with S16L, K19Q, G39S, S41T, W74N, V109K
B15: ACTN78: activin A variant peptide, SEQ ID 79 (protein)
chain: B10 chain with S16L, K19Q, T20A, W74V
B16: ACTN72: activin A variant peptide, SEQ ID 73 (protein)
chain: B10 chain with S16L, K19Q, T20A, G39S, S41T, W74N
B17: ACTN93: activin A variant peptide, SEQ ID 94 (protein)
chain: B10 chain with K19Q, S41T, W74F, V109K
B18: ACTN92: activin A variant peptide, SEQ ID 93 (protein)
chain: B10 chain with K19Q, T20A, W74F, N107G, V109K

system: H1 or H9 human embryonic stem cells; assay: Activin A bioassay: differentiation of human embryonic stem cells to definitive endoderm, cell number and SOX17 intensity by high content analysis (96-well, four days); assay type: cell-based; details: supernatant concentration 1x, assay dilution 1:20;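 as to Cell Number average: Raw total cell count per well from high content imaging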;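 as to Sox 17 Intensity average: total fluorescence of the cell multiplied by cell area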
Summary of the method: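 Read-out was cell count and integrated SOX17 immunofluorescence by high-content imaging, with each well divided by the mean of the 100 ng/ml activin A control. Over the four-day culture, test samples were given in DMEM:F12 with 0.5% FCS plus 20 ng/ml Wnt3a for the first two days and in 2% FCS alone for the last two. Cells were H1 or H9 hESC clusters grown on Matrigel.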

Row | Molecule | Cell Number average | Sox 17 Intensity average
1 | B1 | 1261 | 1.111E+07
2 | B2 | 939 | 1.234E+07

same assay, conditions: supernatant concentration 1x, assay dilution 1:20; control = R&D Sys Activin A 100 ng/ml on same plate

Row | Molecule | Sox 17 Intensity % of control
3 | B1 | 6.0%
4 | B2 | 6.7%

same assay, conditions: supernatant concentration 10x, assay dilution 1:20

Row | Molecule | Cell Number average | Sox 17 Intensity average
5 | B1 | 1396 | 1.031E+07
6 | B2 | 2359 | 2.272E+07

same assay, conditions: supernatant concentration 10x, assay dilution 1:20; assay plates #007, #009, #010

Row | Molecule | Cell Number average | Sox 17 Intensity average
7 | B3 | 6664 | 1.39E+07
8 | B4 | 9937 | 3.45E+06
9 | B5 | 19861 | 2.78E+07
10 | B6 | 22700 | 2.89E+07
11 | B7 | 20757 | 1.99E+07
12 | B8 | 11321 | 1.21E+08
13 | B9 | 24664 | 2.60E+07
14 | B10 | 11821 | 7.45E+05
15 | B11 | 15049 | 3.30E+06
16 | B12 | 8303 | 5.90E+05
17 | B13 | 11583 | 6.21E+05
18 | B14 | 15268 | 1.70E+06
19 | B15 | 12585 | 1.11E+06
20 | B16 | 14638 | 3.44E+06
21 | B17 | 13409 | 5.87E+05
22 | B18 | 14298 | 5.60E+05

same assay, conditions: supernatant concentration 10x, assay dilution 1:20; control = R&D Sys Activin A 100 ng/ml on same plate

Row | Molecule | Sox 17 Intensity % of control
23 | B3 | 55.7%
24 | B1 | 5.6%
25 | B4 | 13.8%
26 | B5 | 19.7%
27 | B6 | 20.5%
28 | B7 | 14.1%
29 | B2 | 12.4%
30 | B8 | 85.6%
31 | B9 | 18.4%
32 | B10 | 3.4%
33 | B11 | 13.2%
34 | B12 | 2.4%
35 | B13 | 2.8%
36 | B14 | 6.8%
37 | B15 | 4.4%
38 | B16 | 13.8%
39 | B17 | 2.7%
40 | B18 | 2.5%

same assay, conditions: supernatant concentration 10x, assay dilution 1:40

Row | Molecule | Cell Number average | Sox 17 Intensity average
41 | B1 | 1382 | 1.311E+07
42 | B2 | 1790 | 1.426E+07

same assay, conditions: supernatant concentration 10x, assay dilution 1:40; control = R&D Sys Activin A 100 ng/ml on same plate

Row | Molecule | Sox 17 Intensity % of control
43 | B1 | 7.1%
44 | B2 | 7.8%

same assay, conditions: supernatant concentration 50x, assay dilution 1:20; assay plates #008, #009

Row | Molecule | Cell Number average | Sox 17 Intensity average
45 | B3 | 6857 | 2.82E+07
46 | B4 | 7805 | 7.53E+06
47 | B10 | 17034 | 2.34E+06
48 | B11 | 16143 | 1.03E+07
49 | B12 | 10603 | 3.73E+06
50 | B13 | 15317 | 2.87E+06
51 | B14 | 15256 | 7.18E+06
52 | B15 | 16301 | 5.64E+06
53 | B16 | 16810 | 6.51E+06
54 | B17 | 15900 | 2.67E+06
55 | B18 | 15009 | 3.32E+06

same assay, conditions: supernatant concentration 50x, assay dilution 1:20; control = R&D Sys Activin A 100 ng/ml on same plate

Row | Molecule | Sox 17 Intensity % of control
56 | B3 | 113.1%
57 | B4 | 30.2%
58 | B10 | 4.2%
59 | B11 | 41.3%
60 | B12 | 15.0%
61 | B13 | 5.2%
62 | B14 | 28.8%
63 | B15 | 22.6%
64 | B16 | 26.1%
65 | B17 | 4.8%
66 | B18 | 6.0%
